# ± gives the standard deviation of the averaged measurements.
# Columns and labels:
# Saccharomyces cerevisiae [1] = assay: protein stability index of tFT-peptide fusion (C-terminal peptide) (PSI (0-1 scale)); higher = more stable (slower turnover)
# Method: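 MPS profiling in S. cerevisiae of the tFT-X12 degron library: putative degron peptides plus stable controls, 12 aa, fused to the C-terminus of a sfGFP-mCherry timer. Cells are FACS-sorted into 8 mCherry/sfGFP bins and deep-sequenced. PSI runs from 0 (unstable) to 1 (stable). Backgrounds are wild type, das1Δ and doa10Δ at 30 °C, and wild type, das1Δ, cdc34-1 and cdc53-1 at 37 °C; 2-3 technical replicates each.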
# Saccharomyces cerevisiae [2] = assay: as above; conditions: genetic background: wild type; temperature: 30 C
# [3] = genetic background: cdc34-1, temperature: 37 C
# [4] = genetic background: cdc53-1, temperature: 37 C
# [5] = genetic background: das1 deletion, temperature: 30 C
# [6] = genetic background: das1 deletion, temperature: 37 C
# [7] = genetic background: doa10 deletion, temperature: 30 C
# [8] = genetic background: wild type, temperature: 30 C
# [9] = genetic background: wild type, temperature: 37 C
# 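Also: PSI is a weighted mean of sequencing reads over stability bins, variants kept only with over 10 reads, mCherry proximal and sfGFP distal, peptide attached via GGGS linker.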
sequence,measurement,setting,value
FSLGGVPYVFFV,protein stability index,Saccharomyces cerevisiae [1]; [3],0.628 ± 0.05
same,protein stability index,Saccharomyces cerevisiae [1]; [4],0.694 ± 0.012
same,protein stability index,Saccharomyces cerevisiae [1]; [5],0.587 ± 0.024
same,protein stability index,Saccharomyces cerevisiae [1]; [6],0.716 ± 0.01
same,protein stability index,Saccharomyces cerevisiae [1]; [7],0.195 ± 0.022
same,protein stability index,Saccharomyces cerevisiae [1]; [8],0.221 ± 0.029
same,protein stability index,Saccharomyces cerevisiae [1]; [9],0.4579 ± 0.0017
same,protein stability index,Saccharomyces cerevisiae [2],0.37 ± 0.019
LLRLPLLALLFV,protein stability index,Saccharomyces cerevisiae [1]; [3],0.236 ± 0.028
same,protein stability index,Saccharomyces cerevisiae [1]; [4],0.227 ± 0.0089
same,protein stability index,Saccharomyces cerevisiae [1]; [5],0.233 ± 0.026
same,protein stability index,Saccharomyces cerevisiae [1]; [6],0.356 ± 0.0077
same,protein stability index,Saccharomyces cerevisiae [1]; [7],0.337 ± 0.02
same,protein stability index,Saccharomyces cerevisiae [1]; [8],0.222 ± 0.033
same,protein stability index,Saccharomyces cerevisiae [1]; [9],0.324 ± 0.016
same,protein stability index,Saccharomyces cerevisiae [2],0.111 ± 0.0047
SSGAVGLVIVVC,protein stability index,Saccharomyces cerevisiae [1]; [3],0.113 ± 0.028
same,protein stability index,Saccharomyces cerevisiae [1]; [4],0.185 ± 0.01
same,protein stability index,Saccharomyces cerevisiae [1]; [5],0.214 ± 0.049
same,protein stability index,Saccharomyces cerevisiae [1]; [6],0.309 ± 0.0093
same,protein stability index,Saccharomyces cerevisiae [1]; [7],0.155 ± 0.018
same,protein stability index,Saccharomyces cerevisiae [1]; [8],0.205 ± 0.023
same,protein stability index,Saccharomyces cerevisiae [1]; [9],0.247 ± 0.0078
same,protein stability index,Saccharomyces cerevisiae [2],0.276 ± 0.014
SRNSSRYLLLVS,protein stability index,Saccharomyces cerevisiae [1]; [3],0.539 ± 0.05
same,protein stability index,Saccharomyces cerevisiae [1]; [4],0.58 ± 0.076
same,protein stability index,Saccharomyces cerevisiae [1]; [5],0.52 ± 0.046
same,protein stability index,Saccharomyces cerevisiae [1]; [6],0.649 ± 0.0096
same,protein stability index,Saccharomyces cerevisiae [1]; [7],0.211 ± 0.032
same,protein stability index,Saccharomyces cerevisiae [1]; [8],0.251 ± 0.027
same,protein stability index,Saccharomyces cerevisiae [1]; [9],0.405 ± 0.011
same,protein stability index,Saccharomyces cerevisiae [2],0.316 ± 0.013
LPSPPSSPPLRP,protein stability index,Saccharomyces cerevisiae [1]; [3],0.6542 ± 0.0027
same,protein stability index,Saccharomyces cerevisiae [1]; [4],0.57161 ± 0.00026
same,protein stability index,Saccharomyces cerevisiae [1]; [5],0.597 ± 0.0064
same,protein stability index,Saccharomyces cerevisiae [1]; [6],0.732 ± 0.045
same,protein stability index,Saccharomyces cerevisiae [1]; [7],0.5877 ± 0.0035
same,protein stability index,Saccharomyces cerevisiae [1]; [8],0.599 ± 0.017
same,protein stability index,Saccharomyces cerevisiae [1]; [9],0.701 ± 0.039
same,protein stability index,Saccharomyces cerevisiae [2],0.508 ± 0.019
LCAFLKLFILII,protein stability index,Saccharomyces cerevisiae [1]; [3],0.0906 ± 0.018
same,protein stability index,Saccharomyces cerevisiae [1]; [4],0.141 ± 0.076
same,protein stability index,Saccharomyces cerevisiae [1]; [5],0.181 ± 0.051
same,protein stability index,Saccharomyces cerevisiae [1]; [6],0.325 ± 0.017
same,protein stability index,Saccharomyces cerevisiae [1]; [7],0.235 ± 0.027
same,protein stability index,Saccharomyces cerevisiae [1]; [8],0.141 ± 0.045
same,protein stability index,Saccharomyces cerevisiae [1]; [9],0.23 ± 0.034
same,protein stability index,Saccharomyces cerevisiae [2],0.239 ± 0.016
FWFSFSFLCHSY,protein stability index,Saccharomyces cerevisiae [1]; [3],0.384 ± 0.022
same,protein stability index,Saccharomyces cerevisiae [1]; [4],0.4491 ± 0.001
same,protein stability index,Saccharomyces cerevisiae [1]; [5],0.358 ± 0.032
same,protein stability index,Saccharomyces cerevisiae [1]; [6],0.4386 ± 0.001
same,protein stability index,Saccharomyces cerevisiae [1]; [7],0.386 ± 0.02
same,protein stability index,Saccharomyces cerevisiae [1]; [8],0.38 ± 0.0095
same,protein stability index,Saccharomyces cerevisiae [1]; [9],0.407 ± 0.02
same,protein stability index,Saccharomyces cerevisiae [2],0.422 ± 0.016
GIFYVRTIWSCG,protein stability index,Saccharomyces cerevisiae [1]; [3],0.232 ± 0.025
same,protein stability index,Saccharomyces cerevisiae [1]; [4],0.348 ± 0.0043
same,protein stability index,Saccharomyces cerevisiae [1]; [5],0.192 ± 0.014
same,protein stability index,Saccharomyces cerevisiae [1]; [6],0.3813 ± 0.0011
same,protein stability index,Saccharomyces cerevisiae [1]; [7],0.1446 ± 0.00063
same,protein stability index,Saccharomyces cerevisiae [1]; [8],0.17 ± 0.017
same,protein stability index,Saccharomyces cerevisiae [1]; [9],0.332 ± 0.011
GRWGGYVGREWG,protein stability index,Saccharomyces cerevisiae [1]; [3],0.497 ± 0.045
same,protein stability index,Saccharomyces cerevisiae [1]; [4],0.522 ± 0.025
same,protein stability index,Saccharomyces cerevisiae [1]; [5],0.442 ± 0.0056
same,protein stability index,Saccharomyces cerevisiae [1]; [6],0.482 ± 0.017
same,protein stability index,Saccharomyces cerevisiae [1]; [7],0.4402 ± 0.00068
same,protein stability index,Saccharomyces cerevisiae [1]; [8],0.458 ± 0.0072
same,protein stability index,Saccharomyces cerevisiae [1]; [9],0.461 ± 0.017
IGWGGGTWVKMG,protein stability index,Saccharomyces cerevisiae [1]; [3],0.544 ± 0.0058
same,protein stability index,Saccharomyces cerevisiae [1]; [4],0.7335 ± 0.0016
same,protein stability index,Saccharomyces cerevisiae [1]; [5],0.654 ± 0.0079
same,protein stability index,Saccharomyces cerevisiae [1]; [6],0.769 ± 0.015
same,protein stability index,Saccharomyces cerevisiae [1]; [7],0.0923 ± 0.022
same,protein stability index,Saccharomyces cerevisiae [1]; [8],0.106 ± 0.023
same,protein stability index,Saccharomyces cerevisiae [1]; [9],0.166 ± 0.038
LEDVLFVMVINI,protein stability index,Saccharomyces cerevisiae [1]; [3],0.4551 ± 0.0027
same,protein stability index,Saccharomyces cerevisiae [1]; [4],0.542 ± 0.028
same,protein stability index,Saccharomyces cerevisiae [1]; [5],0.308 ± 0.038
same,protein stability index,Saccharomyces cerevisiae [1]; [6],0.549 ± 0.035
same,protein stability index,Saccharomyces cerevisiae [1]; [7],0.346 ± 0.012
same,protein stability index,Saccharomyces cerevisiae [1]; [8],0.292 ± 0.025
same,protein stability index,Saccharomyces cerevisiae [1]; [9],0.49 ± 0.03
APPRSLSPPLLS,protein stability index,Saccharomyces cerevisiae [1]; [3],0.6637 ± 0.0036
same,protein stability index,Saccharomyces cerevisiae [1]; [4],0.701 ± 0.011
same,protein stability index,Saccharomyces cerevisiae [1]; [5],0.672 ± 0.022
same,protein stability index,Saccharomyces cerevisiae [1]; [6],0.71 ± 0.0073
same,protein stability index,Saccharomyces cerevisiae [1]; [7],0.679 ± 0.0075
same,protein stability index,Saccharomyces cerevisiae [1]; [8],0.6795 ± 0.0034
same,protein stability index,Saccharomyces cerevisiae [1]; [9],0.689 ± 0.016
SVYLYFQVVAYG,protein stability index,Saccharomyces cerevisiae [1]; [3],0.0652 ± 0.021
same,protein stability index,Saccharomyces cerevisiae [1]; [4],0.0815 ± 0.058
same,protein stability index,Saccharomyces cerevisiae [1]; [5],0.0877 ± 0.049
same,protein stability index,Saccharomyces cerevisiae [1]; [6],0.198 ± 0.02
same,protein stability index,Saccharomyces cerevisiae [1]; [7],0.0536 ± 0.021
same,protein stability index,Saccharomyces cerevisiae [1]; [8],0.0724 ± 0.025
same,protein stability index,Saccharomyces cerevisiae [1]; [9],0.156 ± 0.0094
FGWLELVWFDLG,protein stability index,Saccharomyces cerevisiae [1]; [3],0.646 ± 0.0098
same,protein stability index,Saccharomyces cerevisiae [1]; [4],0.684 ± 0.031
same,protein stability index,Saccharomyces cerevisiae [1]; [5],0.525 ± 0.03
same,protein stability index,Saccharomyces cerevisiae [1]; [6],0.703 ± 0.033
same,protein stability index,Saccharomyces cerevisiae [1]; [7],0.51 ± 0.034
same,protein stability index,Saccharomyces cerevisiae [1]; [8],0.531 ± 0.024
same,protein stability index,Saccharomyces cerevisiae [1]; [9],0.68 ± 0.039
